Reference: PMC7946437, “Cardiolipin targets a dynamin-related protein to the nuclear membrane” (eLife, 2021)

Experiments:
Drp6 (His-drp6) = target: T1, Drp6 (His-drp6) (Tetrahymena thermophila, UniProt Q38KF5, I553A); assay: Malachite Green phosphate release (BIOMOL Green); type: biochemical; conditions: 1 mM GTP, 1 µM protein, 25 mM HEPES pH 7.5, 15 mM KCl, 2 mM MgCl2, 37°C
T1 construct: full length aa 1-710, N-terminal His tag (pRSETB), expressed in E. coli C41(DE3), Ni-NTA; higher-order oligomer (at least six monomers)

[1] = substrate: Nc1nc2c(ncn2[C@@H]2O[C@H](COP(=O)(O)OP(=O)(O)OP(=O)(O)O)[C@@H](O)[C@H]2O)c(=O)[nH]1; assay: Malachite Green phosphate release (BIOMOL Green); type: biochemical, Tetrahymena thermophila; conditions: 25 mM HEPES pH 7.5, 15 mM KCl, 2 mM MgCl2, 37°C, 10 min, GTP 50-2000 µM
[2] = target: the molecule itself; assay: SEC; Superdex 200 GL 10/300; 500 µl of protein (0.5 mg/ml) in buffer A, 0.5 ml/min, absorbance at 280 nm; self-assembly into higher order oligomers

Nc1nc2c(ncn2[C@@H]2O[C@H](COP(=O)(O)OP(=O)(O)OP(=O)(O)O)[C@@H](O)[C@H]2O)c(=O)[nH]1 [GTP]
Malachite Green phosphate release (BIOMOL Green) (Drp6 (His-drp6)): does not affect its activity as assessed by the rate of GTP hydrolysis

B1: Tetrahymena dynamin-related protein 6 (Drp6), N-terminal histidine-tagged (natural protein, Tetrahymena thermophila, UniProt Q38KF5 1-710, looked up)
chain: MTNTIVPANNFQNIKEVIKVVNKLRDFGIESDKIQLPKIVVIGVQSSGKSSLLEQIVQLDFLPRGTGVVTRCPLEIRLIEVTNQDSDFKPYAYFFEERQKIFHDFELVKKEIQKITNDFAGPGKKIVDKVITLTIYQAQCPTLTLIDLPGMTLNSVGDQKDIERVTQDMTKKYIIEKTTIILCVIPINQDLENSLALNLARSVDENGERTIGVLTMIDIMNPGTNCENVLKNRQIPLLHRYYGMKPRSQKDINENVSVQEAIQREQLYFTSHQIYSMYPEYTGTNALTNKLSTLLDSHIRTFLPSIHKKIKMTLSERIKERQQLGNEFPTEVTQQLYELTNIINTSLNLFKQAMTNYDASEIQNIGKIKVDERVGKSYADFLFDKYLLICKKISEEQVFKVKMKDLIKELGKFRVQVNGFLPFEVFESQIKQKINLYETEAIVILEQLKEHVRKVLNHCIDLFPFPNNKIKKIMQDILQNFVQTEYNFTSSHIKTAFYCYKDCICSKMIDIHETESKLKQNHVYLQNDNQQKKVLYEYISKNKSFMEWTVQEIMIKAENLCNVPITMSDLQNTYTKAEEKVQNTDEVLRYSIIYYKYMDNFRKQISDQIPQCIQSLFINSLCKNLMVKVFQAIQSKEYKEIIEKNLKEDEIIATKRAKVIQSIQKLAKANDRLERLIDQGQNCNHMLSTTYGDEENYIHESLEDSDGIDD
notes: Dynamin-related protein 6 (Drp6) of Tetrahymena thermophila; the text calls the His-tagged protein the full-length protein; pRSETB vector; also called His-drp6; WT; source: E. coli C41(DE3), purified (Ni-NTA agarose); not shown: histidine tag, N-terminal, kept
Km [1]: 180 µM
stoichiometry N [2]: ≥ 6 monomers

B2: Drp6-I553A, N-terminal histidine-tagged (natural protein, Tetrahymena thermophila, UniProt Q38KF5 1-710, looked up)
chain: MTNTIVPANNFQNIKEVIKVVNKLRDFGIESDKIQLPKIVVIGVQSSGKSSLLEQIVQLDFLPRGTGVVTRCPLEIRLIEVTNQDSDFKPYAYFFEERQKIFHDFELVKKEIQKITNDFAGPGKKIVDKVITLTIYQAQCPTLTLIDLPGMTLNSVGDQKDIERVTQDMTKKYIIEKTTIILCVIPINQDLENSLALNLARSVDENGERTIGVLTMIDIMNPGTNCENVLKNRQIPLLHRYYGMKPRSQKDINENVSVQEAIQREQLYFTSHQIYSMYPEYTGTNALTNKLSTLLDSHIRTFLPSIHKKIKMTLSERIKERQQLGNEFPTEVTQQLYELTNIINTSLNLFKQAMTNYDASEIQNIGKIKVDERVGKSYADFLFDKYLLICKKISEEQVFKVKMKDLIKELGKFRVQVNGFLPFEVFESQIKQKINLYETEAIVILEQLKEHVRKVLNHCIDLFPFPNNKIKKIMQDILQNFVQTEYNFTSSHIKTAFYCYKDCICSKMIDIHETESKLKQNHVYLQNDNQQKKVLYEYISKNKSFMEWTVQEAMIKAENLCNVPITMSDLQNTYTKAEEKVQNTDEVLRYSIIYYKYMDNFRKQISDQIPQCIQSLFINSLCKNLMVKVFQAIQSKEYKEIIEKNLKEDEIIATKRAKVIQSIQKLAKANDRLERLIDQGQNCNHMLSTTYGDEENYIHESLEDSDGIDD
notes: Dynamin-related protein 6 (Drp6) of Tetrahymena thermophila with I553A, made by site-directed mutagenesis of the His-drp6 construct; pRSETB vector; same limits as His-drp6 are likely (point mutant of that construct); also called His-drp6-I553A; I553A-Drp6; source: E. coli C41(DE3), purified (Ni-NTA agarose); not shown: histidine tag, N-terminal, kept
binding result [2]: binds

B3: Drp6-I553M, N-terminal histidine-tagged (natural protein, Tetrahymena thermophila, UniProt Q38KF5 1-710, looked up)
chain: MTNTIVPANNFQNIKEVIKVVNKLRDFGIESDKIQLPKIVVIGVQSSGKSSLLEQIVQLDFLPRGTGVVTRCPLEIRLIEVTNQDSDFKPYAYFFEERQKIFHDFELVKKEIQKITNDFAGPGKKIVDKVITLTIYQAQCPTLTLIDLPGMTLNSVGDQKDIERVTQDMTKKYIIEKTTIILCVIPINQDLENSLALNLARSVDENGERTIGVLTMIDIMNPGTNCENVLKNRQIPLLHRYYGMKPRSQKDINENVSVQEAIQREQLYFTSHQIYSMYPEYTGTNALTNKLSTLLDSHIRTFLPSIHKKIKMTLSERIKERQQLGNEFPTEVTQQLYELTNIINTSLNLFKQAMTNYDASEIQNIGKIKVDERVGKSYADFLFDKYLLICKKISEEQVFKVKMKDLIKELGKFRVQVNGFLPFEVFESQIKQKINLYETEAIVILEQLKEHVRKVLNHCIDLFPFPNNKIKKIMQDILQNFVQTEYNFTSSHIKTAFYCYKDCICSKMIDIHETESKLKQNHVYLQNDNQQKKVLYEYISKNKSFMEWTVQEMMIKAENLCNVPITMSDLQNTYTKAEEKVQNTDEVLRYSIIYYKYMDNFRKQISDQIPQCIQSLFINSLCKNLMVKVFQAIQSKEYKEIIEKNLKEDEIIATKRAKVIQSIQKLAKANDRLERLIDQGQNCNHMLSTTYGDEENYIHESLEDSDGIDD
notes: Dynamin-related protein 6 (Drp6) of Tetrahymena thermophila with I553M, made by site-directed mutagenesis of the His-drp6 construct; pRSETB vector; same limits as His-drp6 are likely (point mutant of that construct); also called His-drp6-I553M; source: E. coli C41(DE3), purified (Ni-NTA agarose); not shown: histidine tag, N-terminal, kept
Km [1]: 384 µM
binding result [2]: binds
